{
  "source": "patent US20150197564A1",
  "about": "(Regeneron, published 2015)",
  "binders": {"B1": {"name": "H4H1268S (antibody, IgG4, V domains shown)", "VH": "QVQLQQSGPGLVKPSQTLSLTCAISGDSVSSNSPAWNWIRQSPSRGLEWLGRTYYRSKWYNDYAVSVRGRITINPDTSNNQFSLHLNSVTPEDTAMYYCARDKGLTARPTYFDYWGQGTLVTVSS", "VL": "DIQMTQSPSTLSASVGDRVTITCRASQSINYWLAWYQQKPGKAPKPLIYKASSLESGVPSRFSGSGSGTEFTLTISSLQPDDFTTYYCQQYNSYSPTFGQGTKLEIKR"}, "B2": {"name": "H4H1282P (antibody, IgG4, V domains shown)", "VH": "EVQLVQSGGGVVQPGRSLRLSCAASGFTFSNYGMHWVRQAPGKGLEWVAVVWYDGDNKYYADSVKGRFTISRDNSKNTLYLQMNSLRAEDTAVYYCARDIITSRPTLDYWGQGTLVTVSS", "VL": "DIQLTQSPSFLSASVGDRVTITCWASQGINSYLAWYQQKPGKAPKLLIYPASTLQSGVPSRFSGSGSGTEFTLTISSLQPVDFATYYCQQLNSYPLTFGGGTKVEIKR"}, "B3": {"name": "H4H1295P (antibody, V domains shown)", "VH": "QVQLVQSGPEVKKPGASVRVSCKASGYLSDFIITWVRQAPGQGLEWMGWISTYSGDTDSAPKFQGRVTMTTDTSTTTVFLELRSLRSDDTAVYYCARGRLFDYWGQGTLVTVSS", "VL": "not shown"}, "B4": {"name": "H4H1296P (antibody, IgG4, V domains shown)", "VH": "QVQLVESGGVSVKPGGSLRLSCAASGFTFSDYYMSWIRQAPGKGLEWVSYIGSSGTNDYYADSVKGRFTISRDNAKNSLYLQMDSLRAEDTAVYYCARDSSQMGFDYWGQGTLVTVSS", "VL": "DIQMTQSPSSLSASVGDRVTITCRASQNIINFLNWYQQRPGKAPQLLIYVAASLQSGVPSRFTGSGYGTDFTLTISSLQPEDFATYYCQQTYTNPLTFGGGTKVEIKR"}},
  "data": [
    {"biological_target": "T1, hANGPTL3(17-169)-mFc (human)", "T1 construct": "also called N-terminal coiled-coil domain of hANGPTL3 with a C-terminal mouse Fc fusion", "T1 chain": "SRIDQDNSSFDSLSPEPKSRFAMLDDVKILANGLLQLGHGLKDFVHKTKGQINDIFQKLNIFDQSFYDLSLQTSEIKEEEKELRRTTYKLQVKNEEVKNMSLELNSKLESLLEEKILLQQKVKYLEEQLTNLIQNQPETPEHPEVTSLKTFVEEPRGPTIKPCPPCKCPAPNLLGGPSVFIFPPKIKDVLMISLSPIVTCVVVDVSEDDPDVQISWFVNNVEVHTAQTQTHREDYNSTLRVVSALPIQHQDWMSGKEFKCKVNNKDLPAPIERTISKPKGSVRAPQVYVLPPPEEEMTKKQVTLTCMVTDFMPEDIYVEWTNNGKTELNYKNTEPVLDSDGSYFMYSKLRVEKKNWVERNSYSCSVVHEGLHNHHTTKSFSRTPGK", "test": "SPR Biacore, antigen captured, 25C, pH 7.4, HBS-EP", "protocol": "(§1) All kinetic binding experiments were performed at 25° C. or 37° C. on a BIACORE™ T200 label-free molecular interaction instrument (GE Healthcare) using a CM5 sensor chip. Briefly, an antigen capture surface was generated by covalently coupling either an anti-mouse IgG-specific antibody (anti-mFc; GE Healthcare; catalog #BR-1008-38) or an anti-pentahistidine-specific antibody (Qiagen; catalog #34660) to the surface of a CM5 sensor chip using a standard amine coupling method.", "units": {"Kd": "nM", "koff": "s⁻¹", "kon": "M⁻¹ s⁻¹", "t1/2": "h"}, "values": [
      {"binder": "B1", "Kd": 0.721, "koff": 0.000835, "kon": "1.16e+06", "t1/2": 0.233},
      {"binder": "B2", "Kd": 0.0463, "koff": "5.92e-05", "kon": "1.28e+06", "t1/2": 3.25},
      {"binder": "B3", "Kd": 0.226, "koff": "7.95e-05", "kon": 352000, "t1/2": 2.42},
      {"binder": "B4", "Kd": 0.0611, "koff": "3.92e-05", "kon": 641000, "t1/2": 4.92}
    ]},
    {"biological_target": "T2, hANGPTL3(17-460)-His (human, UniProt Q9Y5C1 17-460)", "T2 construct": "Bought protein (R&D Systems); also called full-length mature human ANGPTL3 with a C-terminal decahistidine tag; Human ANGPTL3 (17-460)-His", "T2 sequence": "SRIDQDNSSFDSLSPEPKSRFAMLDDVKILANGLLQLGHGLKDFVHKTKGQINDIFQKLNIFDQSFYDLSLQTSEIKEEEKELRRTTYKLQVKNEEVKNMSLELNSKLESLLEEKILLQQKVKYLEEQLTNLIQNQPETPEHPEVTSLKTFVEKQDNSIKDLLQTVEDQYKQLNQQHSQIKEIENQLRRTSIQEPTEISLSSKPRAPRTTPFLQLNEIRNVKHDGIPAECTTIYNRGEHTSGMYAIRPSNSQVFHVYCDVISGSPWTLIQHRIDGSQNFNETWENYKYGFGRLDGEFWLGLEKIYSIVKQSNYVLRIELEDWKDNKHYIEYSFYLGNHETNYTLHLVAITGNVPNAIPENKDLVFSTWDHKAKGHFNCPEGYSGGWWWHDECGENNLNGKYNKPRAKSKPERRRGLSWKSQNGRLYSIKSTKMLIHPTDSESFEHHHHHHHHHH", "test": "SPR Biacore, antigen captured, 25C, pH 7.4, HBS-EP", "protocol": "as §1", "units": {"Kd": "nM", "koff": "s⁻¹", "kon": "M⁻¹ s⁻¹", "t1/2": "h"}, "values": [
      {"binder": "B1", "Kd": 1.47, "koff": 0.00189, "kon": "1.29e+06", "t1/2": 0.1},
      {"binder": "B2", "Kd": 0.0968, "koff": "9.26e-05", "kon": 957000, "t1/2": 2.08},
      {"binder": "B3", "Kd": 0.197, "koff": "7.35e-05", "kon": 373000, "t1/2": 2.62},
      {"binder": "B4", "Kd": 0.137, "koff": "4.12e-05", "kon": 301000, "t1/2": 4.67}
    ]}
  ]
}
